“Also recorded” adds a separate entry of the source. Where no end group is shown, it is not given here. [ ]: non-standard residue; d: D form.
Experiments:
Aβ (1-40) [1] = target: T1, Aβ (1-40) (Homo sapiens, UniProt P05067); assay: Photoinduced cross-linking (PICUP) of Aβ and peptides; type: binding; settings: for interaction with Aβ (shift in cross-linked Aβ size distribution): pre-aggregated Aβ, 10:1 molar excess of Aβ, Western blot 4G8
T1 construct: Aβ (1-40) was purchased from Anaspec, Inc. (Fremont, Calif.) as lyophilized powder; purchased Anaspec, Inc. (Fremont, Calif.)
Procedure: (§1) Aβ (1-40) was purchased from Anaspec, Inc. (Fremont, Calif.) as lyophilized powder. For dynamic light scattering, ThT fluorescence assay, TEM, NTA measurement and filtration/sedimentation assay, Aβ was dissolved in 50% ACN, re-lyophilized, and reconstituted in 8M urea at 12 mg/mL. Aβ stock was then aliquoted, snap-frozen in ethanol with dry ice, and stored at −80° C. For PICUP and proteolytic fragmentation analysis, lyophilized Aβ was dissolved in prechilled hexafluoroisopropanol (HFIP, Acros Organics, Geel, Belgium), aliquoted, dried and stored at −20° C. as previously described (Cho et al., 2014). Aβ sample was prepared right before use by dissolving dried peptides in 50 mM NaOH and diluting into phosphate-buffered saline (PBSA) (10 mM Na2HPO4/NaH2PO4, 150 mM NaCL and 0.02% NaN3 (pH 7.4)) to 30 μM as previously described (Cho et al., 2014).
Aβ prepared with HFIP/NaOH treatment at 30 μM as described was mixed with peptides to a final concentration of 24 μM Aβ and 2.4 μM peptides. Aβ stock was used immediately (freshly prepared) or after incubation for 24 hr at 37° C. (1 day pre-aggregated). Samples of Aβ with and without peptides were incubated for 1 hr at 37° C. and cross-linked by photo-induced cross-linking method as previously described (Cho et al., 2014). Cross-linked samples were then separated on a 10-20% Tris-Tricine gradient gel (Iinvotrogen, Carlsbad, Calif.), transferred onto a 0.2 μm poly(vinylidene difluoride) (PVDF) membrane and detected by monoclonal mouse anti-Aβ antibody 4G8 (Covance, Princeton, N.J.) as previously described (Cho et al., 2014).

Aβ (1-40) [2] = target: T1, Aβ (1-40); assay: Proteolytic fragmentation assay of Aβ with peptides (Proteinase K); type: binding; settings: 3:1 molar excess of peptides, detection by 4G8
Procedure: as §1
The proteolytic fragmentation assay of Aβ with peptides was performed as previously described in detail (Cho et al., 2014). Briefly, Aβ alone (20 μM) or with peptide (60 μM) was incubated for 24 hr at 37° C. Proteinase K (Promega, Madison, Wis.) was added to the samples at a final concentration of 0.5 μg/mL and samples were dotted onto a 0.45 μm nitrocellulose membrane (Pierce) after incubation for 0, 5, 10, 20, 30, 40, 50, 60, 90 and 120 min. Membranes were then reacted with monoclonal antibodies against Aβ (6E10, Covance, against Aβ (3-8) and 4G8 against Aβ (18-22)) and visualized.

Aβ (1-40) [3] = target: T1, Aβ (1-40); assay: Dynamic light scattering of Aβ aggregate growth; type: biochemical; settings: 140 μM Aβ
Procedure: as §1
Aβ stock in 8M urea prepared as stated above was thawed and sonicated for 2 min before being diluted into PBSA. Aβ alone (140 μM) or mixed with peptides (14 μM) was filtered through […] filter directly into a light scattering cuvette and placed into a bath of the index-matching solvent decahydronaphthalene with temperature controlled to 37° C. Light scattering data were collected using a Brookhaven BI-200SM system (Brookhaven Instruments Corp., Holtsville, N.Y.) and an Innova 90C-5 argon laser (Coherent, Santa Clara, Calif.) operating at 488 nm and 150 mW. The average scattering intensity at 90° was measured over 10 hr and data were normalized to the total mass concentration. The z-averaged hydrodynamic diameter was determined from the autocorrelation function using the method of cummulants.

[4] = test system: primary cortical neuronal cells; assay: In vitro cellular toxicity of Aβ (1-42), MTS assay; type: cell-based, mice; settings: for protection against Aβ toxicity: 10 μM Aβ
Procedure: Aβ toxicity was assessed as described in detail previously (Yang et al., 2013; Cho et al., 2014). Briefly, the primary cortical neuronal cells were cultured from embryonic 15.5 day mice and were maintained in neurobasal media till they are matured. Aβ (1-42) (American Peptide, Sunnyvale, Calif.) at 1 mg/mL in PBS was diluted to 10 μM without or with peptides as previously described (Cho et al., 2014). At 6 days in vitro (DIV), the cells were treated with either Aβ alone or Aβ incubated with different doses of mTTR and peptides. Appropriate vehicle and controls were run along with the treatments. At 8 DIV, the neurons were incubated with MTS reagent (Promega) as per manufacturer protocol for 2-3 hrs and absorbance was measured at 490 nm.

Aβ (1-40) [5] = target: T1, Aβ (1-40); assay: Thioflavin T (ThT) fluorescence assay of Aβ aggregation; type: biochemical; settings: 28 μM Aβ; for inhibition of ThT fluorescence increase: up to 48 h, 2.8 μM peptide or mTTR; for ThT fluorescence intensity of Aβ with peptide: 2.8 μM peptide
Procedure: as §1
ThT stock solutions were prepared in PBSA and filtered through 0.22 μm filter. The concentration of ThT was measured using an extinction coefficient of 26,620 M^−1 cm^−1 at 416 nm and the stock solution was diluted to 10 μM in PBSA prior to the measurement. Aβ alone (28 μM) and with peptides (2.8 μM) or mTTR (2.8 μM) were prepared in PBSA and incubated for 48 hr at 37° C. After 1, 5, 24 and 48 hr of incubation, 10 μL of each sample was mixed with 130 μL of 10 μM ThT and analyzed. ThT fluorescence emission was measured using a QuantaMaster spectrofluometer (PTI, Birmingham, N.J.), with excitation at 440 nm and emission spectra recorded from 460 to 500 nm. Three serial spectra were averaged for each sample and the background signal of ThT in PBSA was subtracted from the averaged data. Fluorescence intensity at a wavelength of 480 nm was compared.

[6] = Peptide self-association by PICUP cross-linking and gel electrophoresis; type: physicochemical; settings: PICUP cross-linking, gel electrophoresis
Procedure: Peptides were also cross-linked by PICUP and analyzed for self-association. Twenty microliters of peptides at 36 μM in PBSA was incubated for 1 hr at 37° C. and cross-linked. Cross-linked samples were then heated at 95° C. for 5 min and separated on a 10-20% Tris-Tricine gradient gel. Peptides were visualized by silver staining (SilverStain Kit, Pierce, Rockford, Ill.).

[7] = Peptide self-aggregation by light scattering; type: physicochemical; settings: 80 μM, 37° C., after 1 hr of incubation
Procedure: To further probe for self-aggregation, G16, LG3, and CG3 were incubated at 80 μM at 37° C. and analyzed by light scattering.

Aβ (1-40) [8] = target: T1, Aβ (1-40); assay: Filtration/sedimentation assay of Aβ aggregation; type: biochemical
Procedure: as §1
Aβ alone (30 μM) or with CG3 (3 μM) was prepared in PBSA and incubated for 24 hr at 37° C. For filtration, 175 μL of sample was filtered through 0.45 μm filter. For sedimentation, 100 μL of sample was transferred onto a separate tube and centrifuged for 30 min at 19,500 ref. The supernatant (80%) was removed. Concentrations of untreated, filtered, and centrifuged samples were measured by BCA assay (Pierce).

Aβ (1-40) [9] = target: T1, Aβ (1-40); assay: Transmission electron microscopy of Aβ aggregates; type: biochemical; settings: 48 h at 37° C., 28 μM Aβ, 2.8 μM peptide
Procedure: as §1
Aβ alone (28 μM) or with peptides (G16 or CG3 at 2.8 μM) were prepared in PBSA and incubated for 48 hr at 37° C. A drop of sample was placed on a pioloform-coated grid and stained with methylamine tungstate stain. Images were taken with a Philips CM120 scanning transmission electron microscope (FEI Corp., Eindhoven, The Netherlands).

Aβ toxicity = settings: cited from earlier work

In the case of “SKV^DPPTIAALLSPYSYSQ [CG2] (cyclo(SKV[dP]PTIAALLSPYSYSQ)) [cyclic 18-mer of TTR residues 106-121 grafted onto DPro-Pro template]”, the “interaction with Aβ (shift in cross-linked Aβ size distribution)” value (Aβ (1-40) [1]) is reported as “do not show signs of interaction with Aβ”, the “effect on Aβ degradation by protease” value (Aβ (1-40) [2]) is reported as “did not have any effect on the time course of degradation” and the “effect on Aβ aggregation (hydrodynamic diameter, total scattered intensity)” value (“effect on Aβ aggregation” for short) (Aβ (1-40) [3]; 14 μM peptide) is reported as “did not affect Aβ aggregation; also recorded: nor did they affect Aβ aggregation”. For the same substance, the “inhibition of Aβ toxicity (summary)” value [4] was “nor did they affect Aβ aggregation or inhibit Aβ toxicity” and the “protection against Aβ toxicity” value ([4]; 10 μM peptide) was “no protective effect”.

With “PRRYTIAALLSPYSWSDYKDDDDK [GF, linear peptide G16 with a C-terminal FLAG tag]” the “interaction with Aβ (shift in cross-linked Aβ size distribution)” value (Aβ (1-40) [1]) was “interact with Aβ”, the “effect on Aβ degradation by protease” value (Aβ (1-40) [2]) was “Aβ degradation was delayed” and the “effect on Aβ aggregation” value (Aβ (1-40) [3]; 14 μM peptide) was “little to no effect on Aβ aggregation”. The “inhibition of ThT fluorescence increase” value (Aβ (1-40) [5]) was “unable to inhibit the ThT fluorescence increase”, the “protection against Aβ toxicity” value ([4]; 10 μM peptide) was “no protective effect” and the “protection against Aβ toxicity” value ([4]; highest dose (40 μM)) was “modest protection”. The “self-association by PICUP” value [6] was “some lower-molecular-weight multimers but none of the larger multimers”.

With “SKV^DPPTIAALLSPYSYSQ [LG2] (SKV[dP]PTIAALLSPYSYSQ) [non-cyclized 18-mer, TTR residues 106-121 grafted onto DPro-Pro template]” the “interaction with Aβ (shift in cross-linked Aβ size distribution)” value (Aβ (1-40) [1]) was “do not show signs of interaction with Aβ”, the “effect on Aβ aggregation” value (Aβ (1-40) [3]; 14 μM peptide) was “nor did they affect Aβ aggregation” and the “inhibition of Aβ toxicity (summary)” value [4] was “nor did they affect Aβ aggregation or inhibit Aβ toxicity”. The “self-association by PICUP” value [6] was “oligomer distribution was shifted towards lower molecular weight”.

For “SKVVTPPRYTIAKLLSPYSYSQ (not fully specified; also: cyclic (type not given here)) [SEQ ID NO: 17]”, the “self-association by PICUP” value [6] was “significantly less self-association than SEQ ID NO: 1”.

In the case of “SKVVT^DPPRYTIAALLSPYSYSQ [LG3] (SKVVT[dP]PRYTIAALLSPYSYSQ) [non-cyclized 22-mer, TTR residues 104-123 grafted onto DPro-Pro template]”, the “interaction with Aβ (shift in cross-linked Aβ size distribution)” value (Aβ (1-40) [1]) is reported as “interact with Aβ; also recorded: weaker compared to CG3”, the “effect on Aβ degradation by protease” value (Aβ (1-40) [2]) is reported as “Aβ degradation was delayed” and the “effect on Aβ aggregation” value (Aβ (1-40) [3]; 14 μM peptide) is reported as “little to no effect on Aβ aggregation”. The “inhibition of ThT fluorescence increase” value (Aβ (1-40) [5]) was “unable to inhibit the ThT fluorescence increase”, the “protection against Aβ toxicity” value ([4]; 10 μM peptide) was “no protective effect” and the “light scattering of peptide alone” value [7] was “did not scatter light above background”.

In the case of “PRRYTIAALLSPYSWS [G16, 16-mer linear peptide, TTR residues 102-117, Y116W, reference compound]”, the “interaction with freshly prepared versus pre-aggregated Aβ” value (Aβ (1-40) [1]; freshly prepared or 1 day pre-aggregated Aβ) is reported as “showed no such selectivity”, the “interaction with Aβ (shift in cross-linked Aβ size distribution)” value (Aβ (1-40) [1]) is reported as “interact with Aβ” and the “effect on Aβ degradation by protease” value (Aβ (1-40) [2]) is reported as “Aβ degradation was delayed; also recorded: most effective in inhibiting degradation”. The “effect on Aβ aggregation” value (Aβ (1-40) [3]; 14 μM peptide) was “increased the size of aggregates of Aβ”, the “intensity of scattered light of Aβ-peptide mixture” value (Aβ (1-40) [3]; 14 μM peptide) was “enhanced the intensity of scattered light similarly” and the “mean hydrodynamic size of Aβ-peptide mixture” value (Aβ (1-40) [3]; after 5 hr, 10:1 molar excess of Aβ, 37° C.) was “about 120 nm”. The “effect on fraction of Aβ aggregates removable by filtration or sedimentation” value (Aβ (1-40) [8]) was “reduce the fraction of Aβ aggregates that can be removed by filtration or sedimentation”, the “ThT fluorescence intensity of Aβ with peptide” value (Aβ (1-40) [5]; after 5 hr) was “remained low” and the “ThT fluorescence intensity of Aβ with peptide” value (Aβ (1-40) [5]; after 24 hr) was “ThT-positive species were detected”. The “morphology of Aβ aggregates by TEM” value (Aβ (1-40) [9]) was “still a large number of fibrils”, the “protection against Aβ toxicity” value ([4]; highest dose tested) was “small but significant protection” and the “light scattering of peptide alone” value [7] was “scattered light above background”. For the same substance, the “fold less effective than full-length TTR at protecting cells from Aβ toxicity” value (Aβ toxicity) was “about 25 fold”.

From US9809627B2, “Cyclized transthyretin peptide and methods of use therefor” (Wisconsin Alumni Research Foundation, priority 2014, dated 2017)
